Experimental data: patent publication US20170173114A1, “METHODS AND COMPOSITIONS FOR INDUCTION OF UCP1 EXPRESSION” (Joslin Diabetes Center, Inc., priority 2014, published 2017)
Entries after “also recorded” stand apart in the source; their conditions may differ.

Tests used:
PTGS2 (COX2) = experiment: PTGS2 mRNA / COX2 protein expression in WT-1 brown preadipocytes; assay type: cell-based, murine
Experimental: Total RNA was isolated with QIAzol lysis reagent (Qiagen, Valencia, Calif.) and purified by RNeasy Mini columns (Qiagen) following the manufacture's instructions. cDNA was prepared from total RNA using the Advantage RT-PCR kit (BD Biosciences, Palo Alto, Calif.) according to manufacturer's instructions. Diluted cDNA was used in a PCR reaction with SYBR Green Master Mix (Applied Biosystems, Foster City, Calif.) and primers specifically designed for detection of the gene of interest. PCR reactions were run in duplicate for each sample and quantitated in the ABI Sequence Detection System (Applied Biosystems). Data were expressed as arbitrary units after normalization to levels of expression of internal controls for each sample. Sequences of primers for specific genes are each obtained from the published literature or designed using publically available gene sequence databases. Unless otherwise indicated, gene expression data described in the examples below was obtained using QPCR.
Cells were harvested in lysis buffer (50 mM HEPES, 137 mM NaCl, 1 mM MgCl2, 1 mM CaCl2, 10 mM Na2P2O7, 10 mM NaF, 2 mM EDTA, 10% glycerol, 1% Igepal CA-630, 2 mM vanadate, 10 μg/ml of leupeptin, 10 μg/ml of aprotinin, 2 mM phenylmethylsulfonyl fluoride; pH 7.4). After lysis, lysates were clarified by centrifugation at 12,000×g for 20 min at 4° C., the amount of protein in the supernatants was determined by the Bradford Protein Assay (Bio-Rad Laboratories, Hercules, Calif.). Proteins were directly solubilized in Laemmli sample buffer. Equal amounts of lysates were separated by sodium dodecyl sulfate-polyacrylamide gel electrophoresis and transferred to Immobolin-P membranes. Membranes were blocked overnight at 4° C. and incubated with the indicated antibody for 2 hours at room temperature. Specifically bound primary antibodies were detected with peroxidase-coupled secondary antibody and enhanced chemiluminescence (ECL, Amersham Biosciences, Piscataway, N.J.).
To determine if FGF4, FGF5, FGF6, FGF10, FGF16, FGF17, FGF18 or FGF20 induced either UCP1 mRNA or PTGS2 mRNA expression, murine brown preadipocyte WT-1 cells (Tseng et al., Nat. Cell. Biol. (2005) 7(6):601-611) were grown in growth media (DMEM-high glucose+10% FBS) supplemented with FGF4, FGF5, FGF6, FGF10, FGF16, FGF17, FGF18, FGF20 or buffer (control) in combination with insulin (20 nM) and triidothyronine (T3, 1 nM) for three days. All FGFs were used at a dosage of 200 ng/mL. mRNA was isolated and UCP1 and PTGS2 gene expression levels were evaluated by quantitative reverse transcription polymerase chain reaction (Q-RT-PCR) analysis. All experiments were performed triplicate and the data are presented as mean+/−SEM.
To determine if FGF1 or FGF10 induce UCP1 mRNA expression or PTGS2 mRNA expression, murine brown preadipocyte WT-1 cells (Tseng et al., Nat. Cell. Biol. (2005) 7(6):601-611) were grown in growth media (DMEM-high glucose+10% FBS) supplemented with FGF1, FGF10 or vehicle (control) in combination with insulin (20 nM) and triidothyronine (T3, 1 nM) for three days. FGF1 and FGF10 were used at a dosage of 50 ng/mL, 100 ng/mL or 300 ng/mL. mRNA was isolated and UCP1 and PTGS2 expression levels were evaluated by quantitative reverse transcription polymerase chain reaction (Q-RT-PCR) analysis. All experiments were performed triplicate and the data are presented as mean+/−SEM.
(§1) To test the role of specific prostaglandins (PGs) in activating UCP1 expression, WT-1 brown adipocytes were pretreated with PGE2, PGI2 and FGF6 for 24 hours. mRNA expression levels of UCP1, PTGS2, LDHA, PDK1 and PKM2 were then measured.

UCP1 and PTGS2 = UCP1 and PTGS2 mRNA in WT-1 cells undergoing adipocyte differentiation; assay type: cell-based, murine; conditions: after induction media; 200 ng/mL FGF or 3.3 nM BMP7, 2 days
Experimental: In a separate experiment investigating the ability of FGF proteins to induce UCP1 expression in cells undergoing adipocyte differentiation, WT-1 preadipocyte cells were differentiated by culturing in growth media supplemented with insulin (20 nM) and triiodothyronine (T3, 1 nM) for 3 days, followed by incubation in an induction media (growth medium supplemented 20 nM insulin, 1 nM T3, 0.5 mM isobutyl-methylxanthine, 5 μM dexamethasone) for 2 days. The cell were then exposed to BMP7 (3.3 nM) or 200 ng/mL of FGF2, FGF6 or, FGF9 in growth media supplemented with insulin (20 nM) and triodothyronine (T3, 1 nM) for 2 additional days. Cells were harvested and UCP1 and PTGS2 mRNA expression levels were determined according to the quantitative RT-PCR assay described above. Experiments were performed in triplicate and the data presented as mean+/−SEM.

UCP1 = UCP1 expression in 3T3-F442A white preadipocytes overexpressing FGF6; assay type: cell-based; conditions: constitutive overexpression of FGF6 in 3T3-F442A
Experimental: FGF6 lentiviral vector was generated by cloning mouse FGF6 cDNA into a lentiviral vector. Lentiviruses were obtained by transfecting 293T cells with lentiviral vectors. Viral supernatant was filtered through 0.45 um filter before applying to cells. Transduction was accomplished by incubating cells with virus supernatant. Stable cells were established by drug selection. The lentiviral vector contains a drug resistant gene for selection.
To assess FGF6's role in the regulation of mitochondrial activity, FGF6 was stably expressed in WT-1 brown preadipocytes and 3T3-F442A white preadipocytes. Stable cells were generated by viral infection followed by drug selection.
As mentioned above, 3T3-F442A white preadipocytes were also used to determine FGF6's role in mitochondrial activity regulation.

LDHA, PDK1, PKM2 = experiment: LDHA, PDK1 and PKM2 mRNA expression in WT-1 cells; assay type: cell-based, murine; conditions: WT-1, 24 hours; vs vehicle
Experimental: as §1

[1] = Glucose tolerance test in Chow or high fat diet mice; assay type: in vivo, C57BL6 mice; conditions: Chow or HFD mice, i.p. glucose 2 mg/g after 16 h fast; particularly in obese HFD mice
Experimental: C57BL6 mice were fed either the Chow diet or a high fat diet (HFD) and were fasted overnight (16 h) prior to intraperitoneal injection of 2 mg/g body weight of glucose using a 20% (w/v) solution.

B1: FGF6: fibroblast growth factor 6; recombinant human FGF from R&D Systems, or mouse FGF6 cDNA overexpressed by lentiviral vector (protein)
chain: KRQRRLYCNVGIGFHLQVLPDGRISGTHEENPYSLLEISTVERGVVSLFGVRSALFVAMNSKGRLYATPSFQEECKFRETLLPNNYNAYESDLYQGTYIALSKYGRVKRGSKVSPIMTVTHFLPRI
PTGS2 mRNA expression relative to the control (PTGS2 (COX2); 200 ng/mL with insulin and T3, three days): increased | PTGS2 mRNA expression (PTGS2 (COX2); 50-300 ng/mL, three days): induced | COX2 protein expression, Western blot (PTGS2 (COX2); 50-300 ng/mL, three days, dose-dependent): increased | PTGS2 mRNA expression (PTGS2 (COX2); WT-1, 24 hours, vs vehicle): significantly induced | PTGS2 mRNA expression in cells undergoing adipocyte differentiation (UCP1 and PTGS2): able to induce | UCP1 mRNA expression in cells undergoing adipocyte differentiation (UCP1 and PTGS2): able to induce | UCP1 expression (UCP1): resulted in UCP1 expression; also recorded: marked increases | LDHA mRNA expression (LDHA, PDK1, PKM2): increase | PDK1 mRNA expression (LDHA, PDK1, PKM2): increase | PKM2 mRNA expression (LDHA, PDK1, PKM2): increase | glucose tolerance [1]: enhanced glucose tolerance; also recorded: improved glucose tolerance
